Target: Manduca sexta CAD repeat 12 (CR12) fragment
Assay: ELISA
Conditions: plates coated with 0.5 μg of CR12, read off a plot

“Cry1Ab activated toxin (from UniProt P0A370) G439D” showed a response (Absorbance 490 nm) (25 nM activated toxin mixed with PxHsp90 at a 1:30 ratio (toxin to chaperone), parent measured without PxHsp90, parent: est. 1.2) of 0.58, a response (Absorbance 490 nm) (25 nM activated toxin, no PxHsp90, parent: est. 1.2) of 0.44 and a response (Absorbance 490 nm) (50 nM activated toxin mixed with PxHsp90 at a 1:30 ratio (toxin to chaperone), parent measured without PxHsp90, parent: est. 1.6) of 0.77. It also gave a response (Absorbance 490 nm) (50 nM activated toxin, no PxHsp90, parent: est. 1.6) of 0.48, a response (Absorbance 490 nm) (100 nM activated toxin mixed with PxHsp90 at a 1:30 ratio (toxin to chaperone), parent measured without PxHsp90, parent: est. 1.7) of 1.1 and a response (Absorbance 490 nm) (100 nM activated toxin, no PxHsp90, parent: est. 1.7) of 0.66.
For “Cry1Ab protoxin (from UniProt P0A370) G439D”, the response (Absorbance 490 nm) (25 nM protoxin mixed with PxHsp90 at a 1:30 ratio (protoxin to chaperone), parent measured without PxHsp90, parent: est. …) was 0.82, the response (Absorbance 490 nm) (25 nM protoxin, no PxHsp90, parent: est. 0.86) was 0.44 and the response (Absorbance 490 nm) (50 nM protoxin mixed with PxHsp90 at a 1:30 ratio (protoxin to chaperone), parent measured without PxHsp90, parent: est. …) was 1.2. It also gave a response (Absorbance 490 nm) (50 nM protoxin, no PxHsp90, parent: est. 0.95) of 0.47, a response (Absorbance 490 nm) (100 nM protoxin mixed with PxHsp90 at a 1:30 ratio (protoxin to chaperone), parent measured without PxHsp90, parent: est. …) of 1.6 and a response (Absorbance 490 nm) (100 nM protoxin, no PxHsp90, parent: est. 1.2) of 0.52.
